Assay results from patent publication US20180155450A1 (Sanofi, published 2018).
Where two headings read alike, the source gives them in different places.

T1: recombinant human IL4 (human, UniProt P05112 25-153)
T1 sequence (looked up): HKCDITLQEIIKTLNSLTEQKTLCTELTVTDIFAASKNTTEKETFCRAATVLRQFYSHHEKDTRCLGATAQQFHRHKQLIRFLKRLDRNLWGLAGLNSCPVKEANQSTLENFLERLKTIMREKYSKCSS


Tests used:
recombinant human IL4 [1] = biological target: T1, recombinant human IL4; assay: cell-based or functional assay
recombinant human IL4 [2] = biological target: T1, recombinant human IL4; assay: SPR (Biacore 3000), antibody captured, antigen as analyte
Experimental: (§1) Kinetic binding analysis by Biacore was performed as follows. Surface plasmon resonance technology on a Biacore 3000 (GE Healthcare) was used for detailed kinetic characterization of purified antibodies. […] Chip surfaces were regenerated with 10 mM glycine pH 2.5. Kinetic parameters were analyzed and calculated in the BIAevaluation program package v4.1 using a flow cell without captured antibody as a reference.

recombinant human IL4 [3] = biological target: T1, recombinant human IL4; assay: cell-based or functional assay; remark: listed apart in the source
recombinant human IL4 [4] = biological target: T1, recombinant human IL4; assay: SPR (Biacore 3000), antibody captured, antigen as analyte; remark: listed apart in the source
Experimental: as §1

Binder	IC50 Cellular Assay IL4 [nM] (HEK-Blue IL-4/IL-13 reporter cells, SEAP) (recombinant human IL4 [1])	Kd (recombinant human IL4 [2])	IC50 Cellular Assay IL4 [nM] (HEK-Blue IL-4/IL-13 reporter cells, SEAP) (recombinant human IL4 [3])	Kd (recombinant human IL4 [4])
CODV-Ig Batch ID 602 (Batch ID 204 with S376C & P397C in IGHG1) (bispecific antibody, Engineered cysteine pair in CH3 (intended intradomain disulfide C376-C397, patent's count)., The mutation numbers are those of the column 'Introduced Mutations IGHG1') heavy: not shown light: DIVLTQSPASLAVSLGQRATISCRASESVDSYGQSYMHWYQQKAGQPPKLLIYLASNLESGVPARFSGSGSRTDFTLTIDPVQAEDAATYYCQQNAEDSRTFGGGTKLEIKGGGGGGGDIQMTQSPASLSVSVGDTITLTCHASQNIDVWLSWFQQKPGNIPKLLIYKASNLHTGVPSRFSGSGSGTGFTLTISSLQPEDIATYYCQQAHSYPFTFGGGTKLEIKGGGGGRTVAAPSVFIFPPSDEQLKSGTASVVCLLNNFYPREAKVQWKVDNALQSGNSQESVTEQDSKDSTYSLSSTLTLSKADYEKHKVYACEVTHQGLSSPVTKSFNRGEC	0.034 nM	0.01 nM		
CODV-Ig Batch ID 603 (Batch ID 204 with P446G447 to G446E447C448 in IGHG1) (bispecific antibody, C-terminal change P446G447 to G446E447C448) heavy: QVQLQQSGPELVKPGASVKISCKASGYSFTSYWIHWIKQRPGQGLEWIGMIDPSDGETRLNQRFQGRATLTVDESTSTAYMQLRSPTSEDSAVYYCTRLKEYGNYDSFYFDVWGAGTLVTVSSGEVQLKESGPGLVAPGGSLSITCTVSGFSLTDSSINWVRQPPGKGLEWLGMIWGDGRIDYADALKSRLSISKDSSKSQVFLEMTSLRTDDTATYYCARDGYFPYAMDFWGQGTSVTVSSGGASTKGPSVFPLAPSSKSTSGGTAALGCLVKDYFPEPVTVSWNSGALTSGVHTFPAVLQSSGLYSLSSVVTVPSSSLGTQTYICNVNHKPSNTKVDKKVEPKSCDKTHTCPPCPAPELLGGPSVFLFPPKPKDTLMISRTPEVTCVVVDVSHEDPEVKFNWYVDGVEVHNAKTKPREEQYNSTYRVVSVLTVLHQDWLNGKEYKCKVSNKALPAPIEKTISKAKGQPREPQVYTLPPSRDELTKNQVSLTCLVKGFYPSDIAVEWESNGQPENNYKTTPPVLDSDGSFFLYSKLTVDKSRWQQGNVFSCSVMHEALHNHYTQKSLSLSGEC light: DIVLTQSPASLAVSLGQRATISCRASESVDSYGQSYMHWYQQKAGQPPKLLIYLASNLESGVPARFSGSGSRTDFTLTIDPVQAEDAATYYCQQNAEDSRTFGGGTKLEIKGGGGGGGDIQMTQSPASLSVSVGDTITLTCHASQNIDVWLSWFQQKPGNIPKLLIYKASNLHTGVPSRFSGSGSGTGFTLTISSLQPEDIATYYCQQAHSYPFTFGGGTKLEIKGGGGGRTVAAPSVFIFPPSDEQLKSGTASVVCLLNNFYPREAKVQWKVDNALQSGNSQESVTEQDSKDSTYSLSSTLTLSKADYEKHKVYACEVTHQGLSSPVTKSFNRGEC	0.036 nM	0.004 nM		
CODV-Ig Batch ID 802 (Batch ID 204 with LC G114C, HC Q43C) (bispecific antibody, Engineered cysteine pair LC C114 (in L1) and HC C43, intended inter-chain disulfide., The mutation numbers are read as counts along the whole chain: G114C lies in L1 as printed; Q43C lies in the N-terminal anti-IL4 VH) heavy: not shown light: DIVLTQSPASLAVSLGQRATISCRASESVDSYGQSYMHWYQQKAGQPPKLLIYLASNLESGVPARFSGSGSRTDFTLTIDPVQAEDAATYYCQQNAEDSRTFGGGTKLEIKGGCGGGGDIQMTQSPASLSVSVGDTITLTCHASQNIDVWLSWFQQKPGNIPKLLIYKASNLHTGVPSRFSGSGSGTGFTLTISSLQPEDIATYYCQQAHSYPFTFGGGTKLEIKGGGGGRTVAAPSVFIFPPSDEQLKSGTASVVCLLNNFYPREAKVQWKVDNALQSGNSQESVTEQDSKDSTYSLSSTLTLSKADYEKHKVYACEVTHQGLSSPVTKSFNRGEC			0.027 nM	0.006 nM
CODV-Ig Batch ID 803 (Batch ID 204 with LC G115C, HC Q43C) (bispecific antibody, Engineered cysteine pair LC C115 (in L1) and HC C43, intended inter-chain disulfide., The mutation numbers are read as counts along the whole chain: G115C lies in L1 as printed; Q43C lies in the N-terminal anti-IL4 VH) heavy: not shown light: DIVLTQSPASLAVSLGQRATISCRASESVDSYGQSYMHWYQQKAGQPPKLLIYLASNLESGVPARFSGSGSRTDFTLTIDPVQAEDAATYYCQQNAEDSRTFGGGTKLEIKGGGCGGGDIQMTQSPASLSVSVGDTITLTCHASQNIDVWLSWFQQKPGNIPKLLIYKASNLHTGVPSRFSGSGSGTGFTLTISSLQPEDIATYYCQQAHSYPFTFGGGTKLEIKGGGGGRTVAAPSVFIFPPSDEQLKSGTASVVCLLNNFYPREAKVQWKVDNALQSGNSQESVTEQDSKDSTYSLSSTLTLSKADYEKHKVYACEVTHQGLSSPVTKSFNRGEC			0.036 nM	0.006 nM

The remaining lines, values ahead:

IC50 Cellular Assay IL4 [nM] (HEK-Blue IL-4/IL-13 reporter cells, SEAP) (recombinant human IL4 [1])	Kd (recombinant human IL4 [2])	IC50 Cellular Assay IL4 [nM] (HEK-Blue IL-4/IL-13 reporter cells, SEAP) (recombinant human IL4 [3])	Kd (recombinant human IL4 [4])	Binder
		0.04 nM	0.002 nM	CODV-Ig Batch ID 804 (Batch ID 204 with LC G116C, HC Q43C) (bispecific antibody, Engineered cysteine pair LC C116 (in L1) and HC C43, intended inter-chain disulfide., The mutation numbers are read as counts along the whole chain: G116C lies in L1 as printed; Q43C lies in the N-terminal anti-IL4 VH) heavy: not shown light: DIVLTQSPASLAVSLGQRATISCRASESVDSYGQSYMHWYQQKAGQPPKLLIYLASNLESGVPARFSGSGSRTDFTLTIDPVQAEDAATYYCQQNAEDSRTFGGGTKLEIKGGGGCGGDIQMTQSPASLSVSVGDTITLTCHASQNIDVWLSWFQQKPGNIPKLLIYKASNLHTGVPSRFSGSGSGTGFTLTISSLQPEDIATYYCQQAHSYPFTFGGGTKLEIKGGGGGRTVAAPSVFIFPPSDEQLKSGTASVVCLLNNFYPREAKVQWKVDNALQSGNSQESVTEQDSKDSTYSLSSTLTLSKADYEKHKVYACEVTHQGLSSPVTKSFNRGEC
		0.047 nM	0.007 nM	CODV-Ig Batch ID 805 (Batch ID 204 with LC G117C, HC Q43C) (bispecific antibody, The mutation numbers are read as counts along the whole chain: G117C lies in L1 as printed; Q43C lies in the N-terminal anti-IL4 VH) heavy: not shown light: DIVLTQSPASLAVSLGQRATISCRASESVDSYGQSYMHWYQQKAGQPPKLLIYLASNLESGVPARFSGSGSRTDFTLTIDPVQAEDAATYYCQQNAEDSRTFGGGTKLEIKGGGGGCGDIQMTQSPASLSVSVGDTITLTCHASQNIDVWLSWFQQKPGNIPKLLIYKASNLHTGVPSRFSGSGSGTGFTLTISSLQPEDIATYYCQQAHSYPFTFGGGTKLEIKGGGGGRTVAAPSVFIFPPSDEQLKSGTASVVCLLNNFYPREAKVQWKVDNALQSGNSQESVTEQDSKDSTYSLSSTLTLSKADYEKHKVYACEVTHQGLSSPVTKSFNRGEC
